According to patent publication US20160083450A1, “HUMAN PROTEIN SCAFFOLD WITH CONTROLLED SERUM PHARMACOKINETICS” (THE REGENTS OF THE UNIVERSITY OF CALIFORNIA, priority 2009, published 2016):

Tests used:
[1] = design: species or system Balb/c mice; details: mouse, in vivo
Method: Their pharmacokinetic profile in blood was evaluated in vivo by injecting each ^131I-labeled DIII protein intravenously in Balb/c mice. Blood was drawn from the tail at eight different time points (0-72 h) and the radioactivity was counted in a gamma well counter.

[2] = type: physicochemical
Method: (§1) When dissolved in aqueous solution, the peptide precipitated. Lack of solubility in water immediately renders this peptide inappropriate for in vivo application. Prior to conjugation, the HyNic modified peptide was dissolved in dimethyl formamide (DMF) organic solvent. The purified DIM was modified to incorporate the 4FB moiety at random lysine residues following protocols provided by SoluLink. After conjugation, the peptide/DIII ratio was determined by measuring A354nm to be an average of 2 CEA specific peptides for every DIIIb molecule and the conjugate was soluble in aqueous solutions. Size exclusion chromatography using Superdex 200 column (GE Healthcare Piscataway, N.J.) was used for purification. Purified anti-CEA peptide-DIIIb conjugates were then radiolabeled with ^124I and injected intravenously in four athymic nude mice bearing LS174T (CEA positive) and C6 (CEA negative) tumors. Mice were imaged by small animal PET/CT at 4, 20 and 27 h, after which mice were euthanized, dissected and tissues/organs were counted in a gamma well counter.

[3] = system: LS174T (CEA positive) tumor; type: in vivo, athymic nude mice
Method: as §1

DIII H464A: HSA domain III variant with H464 mutated to alanine
AUC (time integral of the blood uptake) [1]: 199 % ID/g × h
Aα (amplitude) [1]: 44.95 % ID/g
Aβ (amplitude) [1]: 11.41 % ID/g
k1 [1]: 1.438
k2 [1]: 0.068
t1/2α [1]: 0.482 h
t1/2β [1]: 10.2 h

DIII WT: HSA domain III wild type (amino acid residues 384 to 585)
AUC (time integral of the blood uptake) [1]: 474.8 % ID/g × h
Aα (amplitude) [1]: 36.2 % ID/g
Aβ (amplitude) [1]: 16.81 % ID/g
k1 [1]: 0.3479
k2 [1]: 0.04534
t1/2α [1]: 1.99 h

SDWVCEFIKSQWFCNVLASG [CEA specific, cyclic peptide, reference compound]
Solubility in aqueous solution [2]: precipitated

B1: anti-CEA peptide-DIIIb conjugate: CEA specific cyclic peptide (HyNic) conjugated to 4FB-modified DIIIb, average of 2 peptides per DIIIb (conjugate)
chain: HADICTLSEKERQIKKQTALVELVKHKPKATKEQLKAVMDDFAAFVEKCCKADDKETCFAEEGKKLVAASQAALGL
peptide: SDWVCEFIKSQWFCNVLASG
modifications: cyclised or stapled
notes: CEA specific cyclic peptide (HyNic) conjugated to 4FB-modified DIIIb, average of 2 peptides per DIIIb
Solubility in aqueous solution [2]: soluble
(CEA positive) tumor/(CEA negative) tumor ratio ([3]; 27 h): 1.2
Tumor/muscle ratio ([3]; 27 h): 5.1
tumor/blood ratio ([3]; 27 h): 0.51
Targeting of CEA positive tumor ([3]; PET/CT images): target the CEA positive tumor
Blood ([3]; mouse, in vivo): 3.00 % ID/g
C6 Tumor ([3]; mouse, in vivo): 1.26 % ID/g
Carcass ([3]; mouse, in vivo): 0.56 % ID/g
Kidneys ([3]; mouse, in vivo): 3.66 % ID/g
LS174T Tumor ([3]; mouse, in vivo): 1.53 % ID/g
Liver ([3]; mouse, in vivo): 1.42 % ID/g
Lungs ([3]; mouse, in vivo): 2.36 % ID/g
Muscle ([3]; mouse, in vivo): 0.30 % ID/g
Spleen ([3]; mouse, in vivo): 1.04 % ID/g
Stomach ([3]; mouse, in vivo): 1.07 % ID/g
